Patent US20240132589A1 (ONCORESPONSE, published 2024)
Changes are numbered by the printed parent chain.

B1: B2H4-54 (antibody, V domains shown)
VH: EVQLLESGGGLVQPGTSLTLSCAASGFSLSTYAMSWVRQAPGKGLEWIGWIYNDGSTYYAAWAKGRFTISKDTSKTTLYLQITSLRAEDTATYFCAREGDYIGYFNIWGQGTLVTVSS
VL: DIQMTQSPSSVSASVGDRVTITCQASQSIGSNLAWYQQKPGKAPKLLIYAAATLASGVPLRFSGSGSGTDFTLTISNLQPEDSATYYCQSYVSGSSDVAFGGGTKVEIK
notes: Humanized variant, human IgG4 / kappa
B2: B2H4-25 (antibody, V domains shown)
VH: EVQLVESGGDLATPGGSLRLSCAVSGFSLSTYAMSWVRQAPGKGLEWVGWIYNDGSTYYAAWAKGRFTISKDTSKTTVYLQMTSLRAEDTALYFCAREGDYIGYFNIWGQGTLVTVSS
VL: DVVMTQTPSSVSAALGGTVTIKCQASQSIGSNLAWYQLKPGQRPKLLIYAAATLASGGSSRFKGSGSGTDFTLTISSLEPADAATYYCQSYVSGSSDVAFGGGTEVVVK
notes: as for B1
B3: B2H4-45 (antibody, V domains shown)
VH: B1 VH with G10R, T19R, A24V, I82M, T83N, R86T, A87V
VL: B2 VL
notes: as for B1
B4: B2H4-24 (antibody, V domains shown)
VH: B2 VH
VL: B1 VL
notes: as for B1
B5: B2H4-41 (antibody, V domains shown)
VH: B1 VH with G10R, T19R, A24V, I82M, T83N, R86T, A87V
VL: DIQMTQSPSSLSASVGDRVTITCQASQSIGSNLAWYQLKPGQRPKLLIYAAATLASGVPSRFKGSGSGTDFTLTISSLQSEDAATYYCQSYVSGSSDVAFGGGTEVVVK
notes: as for B1
B6: B2H4-11 (antibody, V domains shown)
VH: QVQLEESGGRVVQPGRSLRLSCAASGFSLSTYAMSWVRQAPGKGLEWIGWIYNDGSTYYAAWAKGRFTISKDTSKTTVFLQMNSLKPDDTATYFCAREGDYIGYFNIWGQGTLVTVSS
VL: B5 VL
notes: as for B1
B7: B2H4-44 (antibody, V domains shown)
VH: B1 VH with G10R, T19R, A24V, I82M, T83N, R86T, A87V
VL: B1 VL
notes: as for B1
B8: B2H4-51 (antibody, V domains shown)
VH: B1 VH
VL: B5 VL
notes: as for B1
B9: B2H4-43 (antibody, V domains shown)
VH: B1 VH with G10R, T19R, A24V, I82M, T83N, R86T, A87V
VL: B5 VL with Q3E, L11V, I21L, L38Q, R43A, S80P, A83F
notes: as for B1
B10: B2H4-13 (antibody, V domains shown)
VH: B6 VH
VL: B5 VL with Q3E, L11V, I21L, L38Q, R43A, S80P, A83F
notes: as for B1
B11: B2H4-35 (antibody, V domains shown)
VH: QVQLVESGGRVVQPGTPLRLSCAASGFSLSTYAMSWVRQAPGKGLEWVAWIYNDGSTYYAAWAKGRFTISRDTSKNTLYLQTNSLKPDDTAVYYCAREGDYIGYFNIWGQGTLVTVSS
VL: B2 VL
notes: as for B1
B12: B2H4-52 (antibody, V domains shown)
VH: B1 VH
VL: B1 VL with I2V, Q3V, V15L, K42Q, L60S, S63K, S76T, N77S, E81A, S83F
notes: as for B1
B13: B2H4-55 (antibody, V domains shown)
VH: B1 VH
VL: B2 VL
notes: as for B1

The binders below were run against T1, Recombinant human LILRB2 protein (ELISA antigen) (human, UniProt Q8N423 22-460) (assay: ELISA, immobilized LILRB2-His; conditioned media of transient transfections).
T1 construct: also called LILRB2-His; recombinant LILRB2
T1 sequence (Q8N423 other isoform, or with tags, fused parts or gaps limits assumed): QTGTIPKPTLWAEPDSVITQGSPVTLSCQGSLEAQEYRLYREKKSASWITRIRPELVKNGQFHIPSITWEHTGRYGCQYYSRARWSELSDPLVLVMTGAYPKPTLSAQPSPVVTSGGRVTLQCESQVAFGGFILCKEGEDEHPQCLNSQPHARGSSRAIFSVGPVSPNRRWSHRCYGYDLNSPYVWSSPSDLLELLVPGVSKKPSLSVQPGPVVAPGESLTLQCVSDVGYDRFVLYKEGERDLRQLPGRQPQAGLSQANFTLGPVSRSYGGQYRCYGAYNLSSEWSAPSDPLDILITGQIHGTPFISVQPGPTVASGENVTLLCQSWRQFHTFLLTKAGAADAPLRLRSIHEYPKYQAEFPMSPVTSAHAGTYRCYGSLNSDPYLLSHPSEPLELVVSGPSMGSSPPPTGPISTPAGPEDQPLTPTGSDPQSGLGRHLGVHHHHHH
Protocol: (§1) To confirm binding to human and cynomolgus LILRB2, antibodies in supernatants were evaluated for binding by enzyme-linked immunosorbent assay (ELISA). Recombinant LILRB2 proteins (human: SEQ ID NO: 48; cynomolgus) were diluted in PBS to 2 μg/mL and added to 384-well high-binding ELISA plates (Greiner Bio-One Microlon™) at 25 μL/well and incubated at 4° C. overnight. The plates were washed three times with Wash Buffer (0.05% Tween® 20 in PBS), using a microplate washer and then blocked with 90 μL/well of ELISA Blocking Buffer A (1% BSA in PBS) for 1 hour at room temperature (RT). After blocking, 25 μL/well of LILRB2 antibodies or isotype control were added to the plates and incubated for 1 hour at RT. After primary antibody binding, plates were washed three times with Wash Buffer using a microplate washer. Secondary detection antibody (HRP-goat anti-rabbit Fab fragment) was diluted to 1:3000 in assay diluent (1% BSA in PBS) and 25 μL/well was added to plates and incubated at RT protected from light for 1 hour. Following incubation, plates were washed four times with Wash Buffer, using a microplate washer. After removal of the final wash, 25 μL/well of 1-Step™ Ultra TMB-ELISA Substrate Solution (Thermo Fisher, No. 34028) was added and plates were incubated for 5-10 min at RT, protected from light. After development, the reaction was stopped by addition of 25 μL/well of 0.3 M HCl, and plates were read using an EnVision (Perkin Elmer) microplate reader at 450 nm. EC₅₀ values were calculated based on log concentration of the primary antibodies at optical density at 450 nm.
Twenty-five IgG4 variants were expressed in mammalian cell culture as a combinatorial library of the five light and five heavy chains. In addition, B2A-IgG4 was included as a transfection control. The conditioned media from these transient transfections were assayed for human IgG concentration. A plate-based ELISA (see Example 2) was performed in which LILRB2-His was immobilized, and binding of humanized mAb variants was detected via an anti-human IgG4 HRP-labeled secondary antibody. The parental rabbit/human chimera clone transfection served as the benchmark EC₅₀ positive control.
Binder B1 has an EC50 of 2.25 ng/mL. For B2, the EC50 was 4.56 ng/mL. Binder B3 has an EC50 of 3.61 ng/mL. B4 gave an EC50 of 3.23 ng/mL. B5 showed an EC50 of 3.76 ng/mL. With B6 the EC50 was 4.2 ng/mL. B7 showed an EC50 of 4.6 ng/mL. Work on B8 yielded an EC50 of 3.85 ng/mL. B9 was tested, and the EC50 was 4.96 ng/mL. In the case of B10, the EC50 is reported as 4.5 ng/mL. In the case of B11, the EC50 is reported as 4.67 ng/mL. Binder B12 has an EC50 of 5.37 ng/mL.

These binders were tested against T2, Human LILRB2 on stably transduced HEK293T cells (human, UniProt Q8N423 22-597) (assay: flow cytometry, HEK293T cells stably expressing human LILRB2).
T2 construct: Lentiviral transduction (G&P Biosciences LTV2992); also called HEK293T-LILRB2; LILRB2-expressing HEK293T cells
T2 sequence (Q8N423 other isoform, or with tags, fused parts or gaps limits assumed): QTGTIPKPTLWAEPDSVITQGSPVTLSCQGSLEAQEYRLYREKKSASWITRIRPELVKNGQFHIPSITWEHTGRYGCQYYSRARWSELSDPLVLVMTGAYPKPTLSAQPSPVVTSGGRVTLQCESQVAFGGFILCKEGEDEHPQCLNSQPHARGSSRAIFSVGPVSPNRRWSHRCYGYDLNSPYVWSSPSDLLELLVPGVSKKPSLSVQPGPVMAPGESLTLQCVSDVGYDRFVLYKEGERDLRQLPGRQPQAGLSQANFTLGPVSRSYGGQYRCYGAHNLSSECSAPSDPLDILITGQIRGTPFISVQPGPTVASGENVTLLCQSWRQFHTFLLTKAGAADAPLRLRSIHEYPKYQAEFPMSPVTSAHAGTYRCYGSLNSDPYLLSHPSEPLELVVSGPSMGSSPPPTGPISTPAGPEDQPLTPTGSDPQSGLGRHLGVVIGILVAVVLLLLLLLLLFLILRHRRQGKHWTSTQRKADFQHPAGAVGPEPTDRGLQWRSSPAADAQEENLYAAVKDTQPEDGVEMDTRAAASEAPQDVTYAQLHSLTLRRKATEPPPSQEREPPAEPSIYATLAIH
Protocol: To confirm binding of LILRB2 antibodies, flow cytometry binding assays were performed using HEK293T cells stably expressing human LILRB2 (Example 3). […] The B2A-IgG1 and B2A-IgG4 chimeras bound the LILRB2-expressing HEK293T cells, with equivalent EC₅₀ values of 0.21 nM and 0.30 nM respectively.
(§2) Select humanized variant antibodies were purified and tested for their ability to bind human LILRB2 by ELISA, using the method described in Example 2, and binding to HEK293T cells expressing human LILRB2, using the method described in Example 4. Representative data are shown for IgG4 variants in Table 6.
With B1 the “BMAX [gMFI]” value was 10400 gMFI and the EC50 was 0.17 ng/mL. With B13 the “BMAX [gMFI]” value was 10800 gMFI and the EC50 was 0.33 ng/mL. For B2, the “BMAX [gMFI]” value was 10200 gMFI and the EC50 was 0.35 ng/mL. B3 was tested, and the “BMAX [gMFI]” value was 10500 gMFI and the EC50 was 0.31 ng/mL. With B4 the “BMAX [gMFI]” value was 10500 gMFI and the EC50 was 0.35 ng/mL. In the case of B5, the “BMAX [gMFI]” value is reported as 10100 gMFI and the EC50 is reported as 0.28 ng/mL. B6 was tested, and the “BMAX [gMFI]” value was 9840 gMFI and the EC50 was 0.32 ng/mL. With B7 the “BMAX [gMFI]” value was 10900 gMFI and the EC50 was 0.31 ng/mL. With B8 the “BMAX [gMFI]” value was 10700 gMFI and the EC50 was 0.37 ng/mL. For B10, the “BMAX [gMFI]” value was 9950 gMFI and the EC50 was 0.31 ng/mL. In the case of B11, the “BMAX [gMFI]” value is reported as 9990 gMFI and the EC50 is reported as 0.21 ng/mL.

The binders below were run against T1, Recombinant human LILRB2 protein (ELISA …) (assay: ELISA, plate-coated recombinant human LILRB2).
Protocol: as §1, §2
In the case of B1, the EC50 is reported as 2 ng/mL. B13 showed an EC50 of 2.82 ng/mL. In the case of B2, the EC50 is reported as 2.88 ng/mL. For B3, the EC50 was 2.3 ng/mL. In the case of B4, the EC50 is reported as 2.81 ng/mL. B5 was tested, and the EC50 was 3.05 ng/mL. Work on B6 yielded an EC50 of 3.98 ng/mL. B7 was tested, and the EC50 was 2.84 ng/mL. B8 showed an EC50 of 3.27 ng/mL. Work on B10 yielded an EC50 of 3.55 ng/mL. Binder B11 has an EC50 of 2.75 ng/mL.

What follows are binders tested against T3, LILRB2-Fc protein (human, UniProt Q8N423 22-460, limits assumed) (assay: blocking ELISA, LILRB2-Fc binding to coated monomer HLA-G; Exp I).
T3 construct: also called human LILRB2-Fc; not shown: Fc part
T3 sequence (Q8N423 22-460 limits assumed): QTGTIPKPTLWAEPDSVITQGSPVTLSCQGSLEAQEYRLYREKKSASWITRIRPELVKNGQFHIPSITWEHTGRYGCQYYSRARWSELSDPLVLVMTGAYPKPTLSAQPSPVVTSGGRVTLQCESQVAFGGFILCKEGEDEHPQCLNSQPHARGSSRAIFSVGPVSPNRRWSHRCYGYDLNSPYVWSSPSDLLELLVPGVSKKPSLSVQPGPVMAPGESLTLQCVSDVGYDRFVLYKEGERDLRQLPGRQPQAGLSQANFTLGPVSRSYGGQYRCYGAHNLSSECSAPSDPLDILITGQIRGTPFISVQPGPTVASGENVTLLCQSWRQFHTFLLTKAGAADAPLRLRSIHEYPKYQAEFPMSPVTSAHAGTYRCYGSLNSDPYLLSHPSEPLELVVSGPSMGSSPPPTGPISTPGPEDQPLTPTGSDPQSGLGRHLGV
Protocol: (§3) Tumor-associated HLA-G is an HLA Class I ligand for LILRB2. Binding of HLA-G to LILRB2 induces an immune suppressive signal in LILRB2 expressing myeloid cells. To determine if the anti-LILRB2 antibodies block the HLA-G-LILRB2 interaction and prevent the induction of an inhibitory signal, blocking ELISA assays in a dose titration were performed. 384-well plates were coated with monomer HLA-G (Fred Hutchinson Cancer Research Center, No. bHLA-G) at a concentration of 5 μg/mL, diluted in PBS, then plates were incubated at RT for 1 hour. Plates were rinsed with Wash Buffer three times, then blocked with Blocking Buffer A for 30 minutes at RT. During blocking incubation step, LILRB2-Fc protein and antibody titrations were prepared in Blocking Buffer A. LILRB2-Fc protein was then incubated with antibody titrations for 30 minutes at RT to allow for binding prior to addition onto plate. Plates were rinsed three times with Wash Buffer, then 25 μL of protein/antibody mixture was added per well and incubated for 1 hour at RT. Following antibody incubation, plates were washed three times with Wash Buffer. Anti-human IgG Fc-HRP secondary antibody was diluted and added at 25 μL/well. Plates were incubated in the dark for 1 hour at RT. Following secondary antibody incubation, plates were washed four times with Wash Buffer. 25 μL/well ultra-neat TMB was added per well for development and incubated for 5 minutes at RT. Reaction was stopped using 0.3 M HCl (25 μL/well). Absorbance was read at 450 nm using the Envision. The IC₅₀ for HLA-G blocking by clone B2A-IgG4 was 0.066 μg/mL.
(§4) Select humanized IgG4 variant antibodies were tested for their ability to block binding of human LILRB2-Fc to monomer HLA-G by ELISA, using the method described in Example 7.
B1 was tested, and the IC50 was 4040 ng/mL. B13 gave an IC50 of 6890 ng/mL. With B2 the IC50 was 7640 ng/mL. Work on B3 yielded an IC50 of 6520 ng/mL. For B4, the IC50 was 7010 ng/mL. Work on B5 yielded an IC50 of 5780 ng/mL. B6 gave an IC50 of 7310 ng/mL. With B7 the IC50 was 7040 ng/mL. B8 gave an IC50 of 8110 ng/mL. B10 gave an IC50 of 5850 ng/mL. B11 gave an IC50 of 5160 ng/mL.

These binders were tested against T3, LILRB2-Fc protein (assay: blocking ELISA, LILRB2-Fc binding to coated monomer HLA-G; Exp II).
Protocol: as §3, §4
B1 was tested, and the IC50 was 4090 ng/mL. B13 was tested, and the IC50 was 7170 ng/mL. B2 showed an IC50 of 8290 ng/mL. B3 was tested, and the IC50 was 7120 ng/mL. Work on B4 yielded an IC50 of 7500 ng/mL. In the case of B5, the IC50 is reported as 6760 ng/mL. Work on B6 yielded an IC50 of 7990 ng/mL. With B7 the IC50 was 7290 ng/mL. With B8 the IC50 was 9050 ng/mL. Binder B10 has an IC50 of 5970 ng/mL. B11 gave an IC50 of 5140 ng/mL.
